To fix the notation:
B1: ORF2673 (protein, listed as Staphylococcus epidermidis)
chain: MRYLKKVTIYISLLILVSGCGNGKETEIKQNFNKMLDMYPTKNLEDFYDKEGYRDEEFDKKDKGTWIVGSTMTIEPKGKYMESRGMFLYINRNTRTTKGYYYVRKTTDDSKGRLKDDEKRYPVKMEHNKIIPTKPIPNDKLKKEIENFKFFVQYGDFKNLKDYKDGDISYNPNVPSYSAKYQLSNNDYNVKQLRKRYDIPTNQAPKLLLKGDGDLKGSSIGSKSLEFTFIENKEENIFFSDGVQFTPSEDSES
B2: ORF2695 (protein, listed as Staphylococcus epidermidis)
chain: MRYLKKVTIYISLLILTIFIGGCGFINKEDSKETEIKQNFNKMLNVYPTKNLEDFYDKEGFRDEEFDKGDKGTWIIRSEMTKQPKGKIMTSRGMVLYINRNTRTAKGYFLIDEIKDDNSGRPIENEKKYPVKMNHNKIFPTKPISDDKLKKEIENFKFFVQYGDFKNLKDYKDGEISYNPNVPSYSAQYQLNNNDNNVKQLRKRYDIPTNQAPKLLLKGDGDLKGSSVGSKNLEFTFVENKEENIFFTDAVQFTPSEDDES
B3: ORF2669 (protein, listed as Staphylococcus epidermidis)
chain: MHYLKKVTIYISLLILVSGCGDSKETEIKQNFNKMLNVYPTKNLEDFYDKEGYRDEEFDKDDKGTWIIRSEMTKQPKGKIMTSKGMVLHMNRNTRSTTGYYVIRKISEDNKSEIDDEEKKYPIKMVNNKIIPTQKINDNKLKNEIENFKFFVQYGSFKNSDDYKEGDIEYNPNAPNYSAQYHLSNDDYNIKQLRKRYDIKTKKTPRLLMRGAGDPKGSSVGYKNLEFTFVKNNEENIYFTDSINFNPSKGKSL
B4: ORF2694 (protein, listed as Staphylococcus epidermidis)
chain: MKHSSKIIVFVSFLILTIFIGGCGFINKEDSKEAEIKQNFNKTLSMYPTKNLEDFYDKEGYRDEEFDKDDKGTWIINSKMIVEPKGEEMEARGMVLRINRNTRTAKGNFIIKRITENNKGIPDVKDKKYPVKMEHNKIIPTKQIKDKKLKKEIENFKFFVQYGNFKNLKDYKDGEISYNPNVPSYSAQYQLNNYDNNVKQLRKRYDIPTNQAPKLLLKGTGDLKGSSVGYKHLEFTFVENKKENIYFTDSINFNPSRGN
B5: ORF2671 (protein, listed as Staphylococcus epidermidis)
chain: VKHSKKLLLCISFLLITFFIGGCGFMNKDDGKETEIKQNFNKMLNVYPTKNLENFYDKEGYRDEEFDKDDKGTWIVHSKMVIEPKGKNMESRGMVLFINRNTRTSKGYFIVNEIEKDRKGRPINNKKKYPVKMKNNKIIPTKPISNDKLKKEIENFKFFVQYGNFKDIKNYKDGDISYNPNVPSYSAKYQLSNNEYNVQQLRKRYDIPTKKVPKLLLKGDGDLKGSSVGSKNLEFTFIENKEENIYFTDSVLFSPSEDNES

The target of the first test is T1, DRA1*0101/DRB1*0401 (Homo sapiens, UniProt P01903+P01911, A100K/A169T/F76Y/I96L/K127E/L162R/M171V/N62H/P40V/Q125Y/R42H/S133A/S149N/S66Y/V115G/V209L/W38E).
T1 construct: using recombinant soluble versions of HLA class II molecules; made in house; host or cells: SC-2 cells
Kind of test: Competition assay with soluble HLA class II molecules. The note with it: binding to soluble DRA1*0101/DRB1*0401 molecules. The arrangement: key: +, + +: binding; +, + +: binding; −: no competition up to 200 μM test peptide. Here is the method: Binding of peptides to HLA molecules on the surface of antigen-presenting cells is a prerequisite for activation of T cells. Binding was assessed in vitro by two independent biochemical assays using recombinant soluble versions of HLA class II molecules. One assay measures the concentration dependent competitive replacement of a labeled reference peptide by the test peptides. The second assay is based on the formation of SDS-stable complexes upon binding of high- and intermediate affinity ligands.
Soluble HLA molecules (DRA1*0101/DRB1*0101 and DRA1*0101/DRB1*0401) were expressed in SC-2 cells and purified as described in Aichinger et al., 1997. For the competition assay (Hammer et al. 1995) HLA molecules were applied between 50 and 200 ng/well. For DRB1*0101 biotinilated indicator peptide HA (PKYVKQNTLKLAT—SEQ ID NO:602, Valli et al. 1993) was used at 0.008 μM. […] Molecules, indicator and test peptides were incubated overnight at 37° C., pH 7. HLA:peptide complexes obtained after incubation with serial dilutions of test and reference peptides (the known high-affinity binders HA and UD4 were used as positive control) were captured in ELISA plates coated with antibody L243, which is known to recognize a conformational epitope formed only by correctly associated heterodimers. Incorporated biotin was measured by standard colorimetric detection using a streptavidin-alkaline phosphatase conjugate (Dako) with NBT/BCIP tablets (Sigma) as substrate and automated OD reading on a Victor reader (Wallac).
For AGGIFYNQTNQQLLVLCDGMGGHK [p23-47], the binding result is recorded as “− (−: no competition up to 200 μM test peptide)”.

Consider ALVFEKSVVIANVGDSRA [p107-124], for which the binding result was “− (−: no competition up to 200 μM test peptide)”.

For FMVEGQRVRTISTYAINNTRCTIF [p395-418], the binding entry is “− (−: no competition up to 200 μM test peptide)”.

Take “FPYIPDKAVYNAIVKVVVANIGYEGQ (FPYIPDKAVYNAIVKVVVANIGYEGQY; listed as Staphylococcus aureus) [p620-646]”: the binding result was “+”.

Consider “GESLNIIASRYGVSVDQLMAANNLRG (listed as Staphylococcus aureus) [p96-121]”, for which the binding entry is reported as “− (−: no competition up to 200 μM test peptide)”.

On to IKINHFCVVPQINSFKVIPPYGHNS [p226-251], for which the binding result was “− (−: no competition up to 200 μM test peptide)”.

Consider IKLVSYDTVKDYAYIRFSVSNGTKA [p209-233], for which the binding result is recorded as “+”.

As for KDYAYIRFSVSNGTKAVKIVSSTHFNN [p218-244], the binding entry was “+”.

KEFKSFYSIRKSSLGVASVAISTL [p6-30]: the binding entry is on record as “+ +”.

Turning to KLLVLTMSTLFATQIMNSNHAKASV [p4-29], the binding entry is “+”.

For the molecule MHVPSFQNNTTATHQN [p254-270], the binding entry is on record as “+”.

On to “MNYGYGPGVVTSRTISASQA (EMNYGYGPGVVTSRTISASQA; listed as Staphylococcus aureus) [p240-260]”, for which the binding result is on record as “+”.

For MTLPLMALLALSSIVAFVLPRKRKN [p623-647], the binding result is reported as “− (−: no competition up to 200 μM test peptide)”.

With “NNLRGYLIMPNQTLQIPNG (NNLRGYLIMPNQTLQIPNGG; listed as Staphylococcus aureus) [p117-136]”, the binding entry was “− (−: no competition up to 200 μM test peptide)”.

Turning to “PKLRSFYSIRKSTLGVASVIVST (listed as Staphylococcus aureus) [p6-28]”, the binding entry is recorded as “+”.

For the molecule “PSLNIKNVNYQYAVPSYSPT (listed as Staphylococcus aureus) [p306-326]”, the binding entry was “+”.

On to “QSWWGLYALLGMLALFIPKFRKESK (listed as Staphylococcus aureus) [p871-896]”, for which the binding result was “− (−: no competition up to 200 μM test peptide)”.

In the case of TIFRYVEGKSLYE [p416-428], the binding result is “− (−: no competition up to 200 μM test peptide)”.

As for “VIVSTLFLISQHQAQA (VIVSTLFLITSQHQAQA; listed as Staphylococcus aureus) [p24-40]”, the binding result is given as “− (−: no competition up to 200 μM test peptide)”.

Take YDYKYFYSYKVVKGVKKYFSFSQS [p275-299]: the binding result is “+”.

Regarding YKVVKGVKKYFSFSQSNGYKIG [p284-305], the binding entry is given as “+”.

For the next test, the system named is antibodies in human patient sera. Kind of test: Western blot reactivity of selected clones with human sera. Type of test: binding. Conditions: clone and its aa region are named in the cell; prefix A/B/C = screen the clone came from. Here is the method: For Western blot analysis approximately 10 to 20 μg of total cellular protein was separated by 10% SDS-PAGE and blotted onto HybondC membrane (Amersham Pharmacia Biotech, England). The LamB or FhuA fusion proteins were detected using human serum as the primary antibody at a dilution of 1:5000 and anti human IgG antibodies coupled to HRP at a dilution of 1:5000 as secondary antibodies. Detection was performed using the ECL detection kit (Amersham Pharmacia Biotech, England). Alternatively, rabbit anti FhuA or mouse anti LamB antibodies were used as primary antibodies in combination with the respective secondary antibodies coupled to HRP for the detection of the fusion proteins.
Subsequent sequencing of a larger number of randomly picked clones (500 to 800 per screen) led to the identification of the gene and the corresponding peptide or protein sequence that was specifically recognized by the human patient serum used for screening. The frequency with which a specific clone is selected reflects at least in part the abundance and/or affinity of the specific antibodies in the serum used for selection and recognizing the epitope presented by this clone. […] All clones that are presented in Table 2 have been verified by Western blot analysis using whole cellular extracts from single clones to show the indicated reactivity with the pool of human serum used in the screen.
10 to 30 different human patient sera were subsequently used to evaluate the presence of antibodies against the selected immunogenic peptide sequences that have been discovered in the screen according to the present invention. To eliminate possible cross-reactivity with proteins expressed by E. coli, all sera were pre-adsorbed with a total cellular lysate of E. coli DHa cells expressing FhuA protein.
This analysis is summarized in Table 2 and as an example shown in FIG. 4 and is indicative of the validity of the present screen.
A general note: In western blotting, separated proteins are transferred to a membrane and probed.
For the molecule B1, the “Serum reactivity with relevant region (positive/total)” value (“Serum reactivity … (positive/total)” below) is listed as “B: SELAE25(23-54): 2/12”.

Consider B2, for which the “Serum reactivity … (positive/total)” value is “A: SEFAH77(22-66): 6/12”.

In the case of B3, the “Serum reactivity … (positive/total)” value was “B: SELAE27(22-51): 5/12”.

For B4, the “Serum reactivity … (positive/total)” value is “B: SELAB26(27-60): 5/12”.

In the case of B5, the “Serum reactivity … (positive/total)” value is recorded as “B: SELAD21(36-61): 5/12”.

Values taken from US7968297B2, “Method for identification, isolation and production of antigens to a specific pathogen” (Intercell AG, priority 2001, dated 2011).
